{"source": "paper PMC3942479", "molecular_target": "Full-length Human cytomegalovirus glycoprotein B (FL-gB), Strep-tagged (Human cytomegalovirus (FIX7 BAC))", "experiment": "negative-stain electron microscopy; purified FL-gB on a glow-discharged carbon grid, 2% uranyl formate, 2D class averages", "data": [{"substance": "Full-length Human cytomegalovirus glycoprotein B (FL-gB), Strep-tagged (natural protein)", "values": [{"measurement": "stoichiometry N", "value": 3}]}]}
